From patent US20240092930A1 (MABWELL SHANGHAI BIOSCIENCE, published 2024)
Blank lines part the entries; values can stand above or below the binder they belong to.

Columns and labels:
[1] = biological target: T1, recombinant mouse Trop-2-his protein (Cat.: 50922-M08H, Beijing Yiqiao Shenzhou Science and Technology Co., … (mouse, UniProt Q8BGV3 25-270)); experiment: ELISA, coated mouse Trop-2-his, purified murine antibody
T1 construct: Bought protein; not shown: his tag
T1 sequence (looked up): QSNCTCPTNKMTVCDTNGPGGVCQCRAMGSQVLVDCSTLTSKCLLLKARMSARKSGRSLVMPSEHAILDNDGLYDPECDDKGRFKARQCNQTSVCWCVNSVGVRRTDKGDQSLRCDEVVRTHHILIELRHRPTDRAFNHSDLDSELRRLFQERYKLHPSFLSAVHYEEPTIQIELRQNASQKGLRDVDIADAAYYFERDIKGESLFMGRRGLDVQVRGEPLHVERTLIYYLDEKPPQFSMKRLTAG
Method: Washed with PBS 3 times, the plates were blocked with the added 5% BSA PBS at 37° C. for 60 min, and then washed 3 times with PBST. The 15 purified murine antibodies were diluted to 1 μg/ml with PBS. Controls as follows were set: (1) Positive Control (PC): Sacituzumab (WHO Drug Information (Vol. 31, No. 1, 2017), SEQ ID NO: 39 and SEQ ID NO: 40), a version having murine IgG constant region, […]; (2) Negative Control (NC): an antibody from an irrelevant hybridoma, 1 μg/ml; (3) blank control: PBS. After incubation at 37° C. for 60 min, the plates were washed 4 times with PBST. […] Afterwards, the plates were washed with PBST 4 times, and TMB substrate was added for color development at 37° C. for 10 min. Then 2M HCl was added to stop reaction; and absorbances at 450 nm and at 630 nm (as reference wavelength) were read, and A450 nm-630 nm values of the wells in the plates were recorded.

[2] = biological target: T2, recombinant human Trop-2-his protein (ACCESSION NO.: NP_002344.2, AA 1-274) (human, UniProt P09758 27-274); experiment: BLI, antibody on AHC sensor, Trop-2-his 60 nM
T2 construct: range 27-274; also called recombinant human Trop-2 protein; recombinant human Trop-2 extracellular domain; not shown: his tag
T2 sequence (looked up): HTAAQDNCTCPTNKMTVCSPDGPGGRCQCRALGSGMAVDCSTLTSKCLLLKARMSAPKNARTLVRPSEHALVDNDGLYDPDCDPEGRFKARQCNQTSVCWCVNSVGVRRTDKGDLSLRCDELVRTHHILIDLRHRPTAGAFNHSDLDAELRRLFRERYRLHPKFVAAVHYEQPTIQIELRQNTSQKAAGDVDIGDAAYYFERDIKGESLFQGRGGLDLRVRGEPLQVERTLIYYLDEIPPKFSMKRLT
How it was run: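 Humanized antibodies at 4 μg/ml in PBS captured via Fc on anti-human IgG Fc (AHC) biosensors for 120 s; 60 nM Trop-2-his (AA 1-274) as analyte, 100 s association, 300 s dissociation. Blank-subtracted responses fitted to 1:1 Langmuir model for kinetic constants.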

[3] = biological target: T3, recombinant cynomolgus Trop-2-his protein (ACCESSION NO.: UniProtKB-A0A2K5UE71, AA 1-272) (cynomolgus, UniProt A0A2K5UE71 1-272); experiment: ELISA, coated cynomolgus Trop-2-his 1 µg/ml
T3 construct: The printed range begins at residue 1; not shown: his tag
T3 sequence: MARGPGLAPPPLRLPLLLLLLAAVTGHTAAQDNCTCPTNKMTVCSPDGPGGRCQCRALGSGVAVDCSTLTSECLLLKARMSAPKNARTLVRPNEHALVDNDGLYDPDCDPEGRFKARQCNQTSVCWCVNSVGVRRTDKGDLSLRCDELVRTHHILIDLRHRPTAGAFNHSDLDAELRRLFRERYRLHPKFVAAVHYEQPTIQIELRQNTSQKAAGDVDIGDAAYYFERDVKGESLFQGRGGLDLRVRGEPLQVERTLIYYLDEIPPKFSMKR
Method: (§1) Washed with PBS 3 times, the plates were blocked with the added 5% BSA PBS at 37° C. for 60 min, and then washed 3 times with PBST. Different concentrations of h23-12 (serial dilutions of 14 concentrations obtained through 3-fold serially diluting a solution with an initial concentration of 10 μg/ml), h4-3 (serial dilutions of 12 concentrations obtained through 3-fold serially diluting a solution with an initial concentration of 3 μg/ml), and Sacituzumab (serial dilutions of 12 concentrations obtained through 3-fold serially diluting a solution with an initial concentration of 3 μg/ml) were added into the plates, with each concentration provided in a parallel well. The plates were incubated at 37° C. for 60 min, and then were washed 4 times with PBST. 1:5000 dilution of H1RP-anti-human Fc (Cat.: 109-035-098, Jackson ImmunoResearch) was added into the plates for incubation at 37° C. for 30 min. Afterwards, the plates were washed with PBST 4 times, and TMB substrate was added for color development at 37° C. for 10 min. Then 2M HCl was added to stop reaction; and absorbances at 450 nm and at 630 nm (as reference wavelength) were read, and A450 nm-630 nm values of the wells in the plates were recorded.

[4] = biological target: T2, recombinant human Trop-2-his protein …; experiment: ELISA, coated human Trop-2-his 1 µg/ml
Method: as §1

[5] = biological target: T1, recombinant mouse Trop-2-his protein …; experiment: ELISA, coated mouse Trop-2-his 1 µg/ml
Method: as §1

[6] = biological target: T2, recombinant human Trop-2-his protein …; experiment: BLI, antibody on AHC sensor, Trop-2-his 23, 30, 45, 60 nM
Method: (§2) Affinities of the antibodies were determined by an assay including capturing Fc fragments of the antibodies with anti-human IgG Fc capture (AHC) biosensors using Octet QKe system instrument from Fortebio.
For the assay, each of the antibodies (h23-12, h4-3, and control antibody Sacituzumab) was diluted to 4 μg/ml in PBS, and was allowed to flow through the surface of an AHC biosensor (Cat.: 18-0015, PALL) for 120 s. Recombinant human Trop-2-his protein (ACCESSION NO.: NP_002344.2, AA 1-274) was used as a mobile phase. The Trop-2-his protein was used in following concentrations which corresponded to different antibodies: in case of h23-12, the Trop-2 was used in concentrations of 23, 30, 45, and 75 nM; in case of h4-3, it was used in concentrations of 23, 30, 45, and 60 nM; and in case of Sacituzumab, it was used in concentrations of 23, 30, 45, and 75 nM. The binding time was 100 s and the dissociation time was 300 s. When the assay was finished, data from which the response values of blank control had been deducted were fitted to a 1:1 Langmuir binding model using software, and then kinetic constants for antigen-antibody binding were calculated.

[7] = biological target: T4, human Trop-2 on the surface of cells (CHO/Trop-2 cells; BxPC-3 cells; NCI-N87 cells) (human, UniProt P09758 27-323); experiment: cell-based or functional assay
T4 sequence (looked up): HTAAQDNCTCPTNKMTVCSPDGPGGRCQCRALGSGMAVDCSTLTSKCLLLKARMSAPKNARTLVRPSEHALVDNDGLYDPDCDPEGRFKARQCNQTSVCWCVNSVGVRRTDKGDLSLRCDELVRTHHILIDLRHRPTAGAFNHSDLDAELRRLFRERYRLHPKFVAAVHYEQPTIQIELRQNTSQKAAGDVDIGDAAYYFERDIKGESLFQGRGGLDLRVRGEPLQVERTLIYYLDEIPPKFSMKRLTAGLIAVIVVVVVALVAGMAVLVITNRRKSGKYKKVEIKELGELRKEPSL

[8] = biological target: T4, human Trop-2 on the surface of cells …; experiment: cell-based or functional assay; remark: listed apart in the source
[9] = biological target: T4, human Trop-2 on the surface of cells …; experiment: cell-based or functional assay; remark: listed apart in the source
[10] = biological target: T2, recombinant human Trop-2-his protein …; experiment: BLI, SN38-labeled antibody on AHC sensor, Trop-2-his 60 nM, 300 s binding
Method: as §2
For the assay, SN38-labeled antibodies prepared as described above: h23-12-SN38, ch4-3-SN38, ch11-4-SN38, and positive control antibody Sacituzumab-SN38, as well as naked antibodies h23-12, ch4-3, ch11-4, and positive control antibody Sacituzumab were diluted to 4 μg/ml with PBS and allowed to flow through the surface of an AHC biosensor (Cat.: 18-0015, PALL) for 120 s. Recombinant human Trop-2-his protein (ACCESSION NO.: NP_002344.2, AA 1-274) was used as a mobile phase, and its concentration was 60 nM. The binding time was 300 s and the dissociation time was 300 s. When the assay was finished, data from which the response value of blank control had been deducted were fitted to a 1:1 Langmuir binding model using software, and then kinetic constants for antigen-antibody binding were calculated.

B1: m23-12 (antibody, mouse IgG1, V domains shown)
VH: QVQLQQPGAELVKPGASVKLSCKADGYIFTSYWMHWVKQRPGQGLEWIGEITPSDNYTSYNQKFKGKATLTVDKSSSTAYMQLSSLTSEDSAVYYCTRGHGNYVSFDYWGQGTTLTVSS
VL: DIQMTQITSSLSASLGDRVTITCRASQDISNYLNWYQQKPDGTVKLLIYYTSRLHSGVPSRFSGSGSGTDYSLTISNLEQEDIATYFCQQGYTLPPYTFGGGTKLEIK
notes: also called murine antibody 23-12
- binding result [1]: no binding (tested: 1 µg/ml)

B2: h4-3-1 (antibody, human IgG1, kappa, V domains shown)
VH: EVQLVQSGPEVKKPGASVKVSCKASGFTFTDYVIGWVRQAPGQGLEWIGEIYLGSGTIYYTEKFKGRVTMTADTSTSTAYMELSSLRSEDTAVYYCARGSIFPFDYWGQGTLVTVSS
VL: DIQLTQSPSSLSASVGDRVTITCSASSSVSYMYWYQQKPGKAPKLLIYDTSTLASGVPSRFSGSGSGTDFTLTISSLQPEDFATYYCQQWSSYPYTFGQGTKLEIKR
notes: also called CDR grafted antibody 4-3
- Kd [2]: 0.304 nM
- EC50 [3]: 0.0461 nM
- EC50 [4]: 0.0469 nM
- binding result [5]: no binding (tested: up to 3 µg/ml)
- Kd [6]: 0.545 nM
- koff [6]: 0.000146 s⁻¹
- kon [6]: 267000 M⁻¹ s⁻¹

B3: Sacituzumab-SN38 (antibody, human IgG1, kappa, V domains shown)
VH: QVQLQQSGSELKKPGASVKVSCKASGYTFTNYGMNWVKQAPGQGLKWMGWINTYTGEPTYTDDFKGRFAFSLDTSVSTAYLQISSLKADDTAVYFCARGGFGSSYWYFDVWGQGSLVTVSS
VL: DIQLTQSPSSLSASVGDRVSITCKASQDVSIAVAWYQQKPGKAPKLLIYSASYRYTGVPDRFSGSGSGTDFTLTISSLQPEDFAVYYCQQHYITPLTFGAGTKVEIKR
modifications: CL2A-SN-38 conjugated to the DTT-reduced antibody; 7.5 SN38 per antibody; sites not stated
notes: also called Sacituzumab labeled with SN38
- IC50 (µg/ml), inhibitory activity of anti-Trop-2 ADCs on cell growth, BxPC-3 cells [7]: 4.31 µg/mL
- Internalization percentage, 1 h, NCI-N87 cells, FACS [8]: 47.5%
- Internalization percentage, 1 h, BXPC-3 cells, FACS [9]: 32.7%
- Kd [10]: 0.431 nM

B4: m3-11 (antibody, mouse IgG1, V domains shown)
VH: QVQLQQPGAELVKPGSSVKLSCKASGYTFTSYWMYWVKQRPGQGLEWIGEINPSNGRTNYNEKFKSKATLTVDKSSSTAYMQFSSLTSEDSAVYYCTREGHNYDGSLGAMDHWGQGTSVTVSS
VL: DVVVTQTPLSLPVSFGDQVSISCRSSQSLTNSYGNTFLSWYLHKPGQSPQLLLYGISNRFSGVPDRFSGSGSGTDFTLKINTIKPEDLGMYYCFQSTHQPYTFGGGTKLEIK
notes: also called murine antibody 3-11
- binding result [1]: no binding (tested: 1 µg/ml)

B6: ch4-3-SN38 (antibody, V domains shown)
VH: QVQLQQSGPELVKPGASVKMSCKASGFTFTDYVIGWVKQRTGQGLEWIGEIYLGSGTIYYTEKFKGKATLTADTSSNTAYMQLSSLTSEDSAVYFCARGSIFPFDYWGQGTTLTVSS
VL: QIVLTQSPAIMSASPGEKVTMTCSASSSVSYMYWYQQKPGSSPRLLIYDTSTLASGVPVRFSGSGSGTSYSLTISRMEAEDAATYYCQQWSSYPYTFGGGTKLEIK
modifications: CL2A-SN-38 conjugated to the DTT-reduced antibody; 7.5 SN38 per antibody; sites not stated
notes: also called ch4-3 labeled with SN38
- IC50 (µg/ml), inhibitory activity of anti-Trop-2 ADCs on cell growth, BxPC-3 cells [7]: 3.3 µg/mL
- Internalization percentage, 1 h, NCI-N87 cells, FACS [8]: 64.6%
- Internalization percentage, 1 h, BXPC-3 cells, FACS [9]: 57.7%
- Kd [10]: 0.177 nM

Further lines, results first:

- binding result [1]: no binding (tested: 1 µg/ml)
B5: m11-4 (antibody, mouse IgG1, V domains shown)
VH: QVQLQQPGAELVRPGASVNLSCKASGYTFTSYWINWVKQRPGQGLEWIGNIYPSNSYTNYNQKFKDTATLTVDKSSSTAYMQLSSPTSEDSAVYFCSSYRSDGFAYWGQGTLVTVSA
VL: DILLTQSPAILSVSPGEKVSFSCRASQNIGTSIHWYQQRTNGSPRLLIEFASESISGIPSRFSGSGSGTDFTLTINSVESEDIADYYCQQSNSWPFTFGGGTKLEIK
notes: also called murine antibody 11-4; ml 1-4

- binding result [1]: no binding (tested: 1 µg/ml)
B7: m4-3 (antibody, mouse IgG1, V domains shown)
VH: B6 VH
VL: B6 VL
notes: also called murine antibody 4-3
